Measured values from patent US20110300071A1, “TARGETING NPR-C IN ANGIOGENESIS AND ATHEROSCLEROSIS WITH A C-TYPE ATRIAL NATRIURETIC FACTOR (CANF)-COMB NANOCOMPLEX” (Washington University, priority 2010, published 2011).
Positions of bridges follow the written chain, without caps; N, C: chain ends. Residues, ends and D or L forms follow the SMILES beside them. No end group written: not given here. *: point of attachment. DOTA = O=C(O)CN1CCN(CC(=O)O)CCN(CC(=O)*)CCN(CC(=O)O)CC1

Assays:
atherosclerotic lesions = assay: MRI of Gadofluorine uptake in atherosclerotic-like lesions; format: in vivo, rabbit; conditions: 3T MRI 1 hour after administration
Protocol: The presence of atherosclerotic lesions in the rabbits was confirmed by 3T MRI 1 hour after administration of a non-receptor specific plaque-targeting contrast agent (Gadofluorine M, 0.5 μmol/kg body weight, Schering AG, Germany) (Sirol, M., et al., Circulation 109:2890-2896, 2004; Zheng, J., et al., Invest. Radiol. 43:49-55, 2008; Meding, J., et al., Mol. Imaging 2:120-129, 2007). […] For scanning, the rabbit was placed supine into a plastic bed. Three micropipette tubes filled with 0.5 mL Gadofluorine M served as fiducial markers, and were taped into position on the bed. At the beginning of the PET study, these tubes were drained of the Gadofluorine by syringe, and refilled with 0.5 mL of ^64Cu to serve as the PET fiducials. These helped to “co-localize” the plaque regions between the two image modalities.

in vitro = in vitro ADME; conditions: rabbit, serum
Protocol: On the contrary, only free ^64Cu was detected in the control samples (^64Cu-acetate incubated in rabbit serum) by radio-HPLC.

in vivo = conditions: rabbit, iv, total radioactivity
Protocol: In these experiments, the blood clearance studies were performed in normal rabbits (n=4) to evaluate the pharmacokinetics of tracer in vivo. About 20 MBq of ^64Cu-DOTA-C-ANF was injected intravenously into the left ear of rabbit, and blood sample (0.2 mL) was drawn from the contralacteral ear over the period of 1 h (1 min, 3 min, 5 min, 10 min, 20 min, 40 min and 60 min). The activity of the blood samples were counted in gamma counter and presented in percent injected dose per gram (ID %/g).

[1] = target: natriuretic peptide clearance receptor (NPR-C), rabbit (rabbit) (UniProt G1SZF5); assay: cell-based or functional assay
[2] = target: natriuretic peptide clearance receptor (NPR-C), mouse (mouse) (UniProt P70180); assay: cell-based or functional assay
[3] = target: T1, natriuretic peptide clearance receptor (NPR-C), rabbit (rabbit, UniProt G1SZF5 25-536); assay: cell-based or functional assay
T1 sequence: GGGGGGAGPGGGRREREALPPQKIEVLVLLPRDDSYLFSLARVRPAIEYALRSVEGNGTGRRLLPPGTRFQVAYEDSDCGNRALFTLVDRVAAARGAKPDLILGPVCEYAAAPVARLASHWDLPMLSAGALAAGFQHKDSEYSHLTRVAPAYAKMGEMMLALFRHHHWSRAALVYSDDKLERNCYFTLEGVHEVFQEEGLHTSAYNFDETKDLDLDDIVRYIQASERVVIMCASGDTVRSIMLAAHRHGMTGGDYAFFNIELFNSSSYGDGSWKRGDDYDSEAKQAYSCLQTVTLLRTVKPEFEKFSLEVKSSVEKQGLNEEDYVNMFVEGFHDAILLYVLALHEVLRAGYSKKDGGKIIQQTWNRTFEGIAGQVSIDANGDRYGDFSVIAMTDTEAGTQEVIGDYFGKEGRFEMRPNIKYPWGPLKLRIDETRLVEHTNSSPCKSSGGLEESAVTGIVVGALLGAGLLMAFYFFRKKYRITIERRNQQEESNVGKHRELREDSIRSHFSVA

[4] = target: T2, natriuretic peptide clearance receptor (NPR-C), mouse (mouse, UniProt P70180 41-536); assay: cell-based or functional assay
T2 sequence (looked up): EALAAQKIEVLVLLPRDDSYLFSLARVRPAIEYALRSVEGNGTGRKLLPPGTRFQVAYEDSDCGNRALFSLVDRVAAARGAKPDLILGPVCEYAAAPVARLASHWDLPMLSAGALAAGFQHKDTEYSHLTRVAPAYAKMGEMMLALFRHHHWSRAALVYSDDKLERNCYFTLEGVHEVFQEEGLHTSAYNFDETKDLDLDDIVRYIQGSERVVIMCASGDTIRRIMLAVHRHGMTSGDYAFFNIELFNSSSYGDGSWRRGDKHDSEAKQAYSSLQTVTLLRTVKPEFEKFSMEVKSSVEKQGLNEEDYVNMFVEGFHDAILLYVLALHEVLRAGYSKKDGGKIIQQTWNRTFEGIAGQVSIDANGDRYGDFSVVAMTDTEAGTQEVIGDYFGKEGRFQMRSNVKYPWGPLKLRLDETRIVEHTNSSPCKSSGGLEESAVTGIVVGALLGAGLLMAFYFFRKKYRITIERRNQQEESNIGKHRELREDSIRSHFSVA

[5] = target: T1, natriuretic peptide clearance receptor …; assay: cell-based or functional assay; remark: listed apart in the source

In the case of `CC(C(=O)NCC(=O)NCCCC[C@H](NC(=O)CO[C@H]1O[C@H](CO)[C@@H](O)[C@H](O)[C@@H]1O)C(=O)N1CCN(S(=O)(=O)C(F)(F)C(F)(F)C(F)(F)C(F)(F)C(F)(F)C(F)(F)C(F)(F)C(F)(F)F)CC1)N1CCN(CC(=O)O)CCN(CC(=O)O)CCN(CC(=O)O)CC1` (stereo partly shown) [Gadofluorine M], the “uptake in control arteries (MRI)” value (atherosclerotic lesions) is reported as “no Gadofluorine M uptake” and the “MRI signal in injured vessels” value (atherosclerotic lesions; all rabbits, all time points) is reported as “increased signal”.

In the case of `CC[C@H](C)[C@@H]1NC(=O)[C@H](CCCNC(=N)N)NC(=O)[C@H](CC(=O)O)NC(=O)[C@H]([C@@H](C)CC)NC(=O)[C@H](CCCNC(=N)N)NC(=O)CNC(=O)CNC(=O)[C@H](Cc2ccccc2)NC(=O)[C@@H](NC(=O)[C@H](CO)NC(=O)[C@H](CO)NC(=O)[C@H](CCCNC(=N)N)NC(=O)CN2CCN(CC(=O)O)CCN(CC(=O)O)CCN(CC(=O)O)CC2)CSSC[C@@H](C(N)=O)NC(=O)[C@H](C)NC(=O)CNC1=O` [^64Cu-DOTA-CANF, metal not drawn] ({DOTA}-RSSCFGGRIDRIGAC-NH2; disulfide 4-15), the remaining at 1 h (in vitro) is reported as 97.7 ± 3.9% and the tissue uptake at 0.05 h (in vivo) is reported as 0.1 %ID/g.

Work on RSSCFGGRIDRIGAC-NH2 (disulfide 4-15; not fully specified; also: 64Cu label) [^64Cu-CANF-Comb (25% CANF-Comb)] yielded an Injury SUV, 1 h [1] of 5.31 SUV, an Injury SUV, 4 h [1] of 4.76 SUV and an Injury SUV, 24 h [1] of 3.74 SUV. The Injury/control SUV ratios, 1 h [1] was 4.07, the Injury/control SUV ratios, 4 h [1] was 4.07 and the Injury/control SUV ratios, 24 h [1] was 4.24. For the same molecule, the Injury/muscle SUV ratios, 1 h [1] was 38.2, the Injury/muscle SUV ratios, 4 h [1] was 37.7 and the Injury/muscle SUV ratios, 24 h [1] was 40.8.

B1: ^64Cu-DOTA-CANF-Comb nanoprobe (peptide)
peptide: RSSCFGGRIDRIGAC-NH2
modifications: disulfide 4-15; also: acylated with 4-pentynoic anhydride, clicked to azide-PEG methacrylate of PMMA-core/PEG-shell comb copolymer nanoparticle, DOTA in particle core chelates 64Cu
B1 gave an ischemic/nonischemic uptake ratio, 1 h p.i. [2] of 4.35, an ischemic/nonischemic uptake ratio, 24 h p.i. [2] of 5.35 and a tracer uptake in ischemic limb, 1 h p.i. [2] of 6.3 % ID/g. The tracer uptake in ischemic limb, 24 h [2] was 8.5 % ID/g, the uptake in lesion site with receptor blocking, 1 h [2] was 3.34 and the uptake in lesion site with receptor blocking, 4 h [2] was 3.34. The uptake in lesion site with receptor blocking, 24 h [2] was 3.31, the uptake ratio with receptor blocking, 1 h p.i. [2] was 1.93 and the uptake ratio with receptor blocking, 4 h p.i. [2] was 1.87. For the same molecule, the uptake ratio with receptor blocking, 24 h p.i. [2] was 1.82.

With RSSCFGGRIDRIGAC-NH2 (disulfide 4-15; also: DOTA conjugated, site not given here, 64Cu chelated) [^64Cu labeled DOTA-C-type atrial natriuretic factor (CANF) conjugate] the “Injury/control SUV ratios, 1 h” value [3] was 1.87 ratio, the “Injury/muscle SUV ratios, 1 h” value [3] was 3.39 ratio and the “ischemic/nonischemic uptake ratio, after blocking with unlabeled CANF” value [4] was 1.24 ratio. The “ischemic/nonischemic uptake ratio, before blocking” value [4] was 2.34 ratio, the “SUV ratio injured/control arteries, blocking with unlabeled C-ANF” value [5] was 1.07 ratio and the “SUV ratio injured/control arteries, pre-blocking” value [5] was 1.42 ratio. For the same molecule, the “target-to-background ratio injured artery/muscle, blocking” value [5] was 2.13 ratio and the “target-to-background ratio injured artery/muscle, pre-blocking” value [5] was 3.05 ratio.
